Measured values: the supplement of paper PMC9112550, “Optimization of the antimicrobial peptide Bac7 by deep mutational scanning” (BMC Biology, 2022)

What follows are sequences tested on Escherichia coli TOP10 (assay: shrunken log2 fold change of peptide-encoding DNA abundance (4.5 h post-induction vs induction); higher = less antimicrobial activity (less host growth inhibition)). Conditions: time post-induction: 4.5 h; library: site-saturation at positions 5, 18, 19, 20.
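Further: peptides expressed intracellularly from a pBAD plasmid library in pooled LB shake-flask culture, induced with 0.3% L-arabinose, DNA abundance read by NGS, three biological replicates, DESeq2 with apeglm shrinkage.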

Question: For RRIRIRPPRLPRPRPRPLVHPRP, which “shrunken log2 fold change” value is on record?
Answer: Its value is -0.266.

Question: How did the “shrunken log2 fold change” value turn out when RRIRIRPPRLPRPRPRPLWVPRP was run?
Answer: Its value is 0.0248.

Question: Which “shrunken log2 fold change” value does the source give for RRIRIRPPRLPRPRPRPMACPRP here?
Answer: The value was -0.321.

Question: For RRIRIRPPRLPRPRPRPMAWPRP, which “shrunken log2 fold change” value is on record?
Answer: The value was 0.0272.

Question: For RRIRIRPPRLPRPRPRPMCGPRP, which “shrunken log2 fold change” value is on record?
Answer: Its value is -0.0603.

Question: For RRIRIRPPRLPRPRPRPMDIPRP, which “shrunken log2 fold change” value is on record?
Answer: The value was -0.911.

Question: How did the “shrunken log2 fold change” value turn out when RRIRIRPPRLPRPRPRPMDVPRP was run?
Answer: The value was -0.361.

Question: For RRIRIRPPRLPRPRPRPMEHPRP, which “shrunken log2 fold change” value is on record?
Answer: The value was -0.199.

Question: How did the “shrunken log2 fold change” value turn out when RRIRIRPPRLPRPRPRPMFKPRP was run?
Answer: Its value is -0.286.

Question: For RRIRIRPPRLPRPRPRPMFSPRP, which “shrunken log2 fold change” value is on record?
Answer: Its value is -0.433.

Question: How did the “shrunken log2 fold change” value turn out when RRIRIRPPRLPRPRPRPMGDPRP was run?
Answer: The value was -0.114.

Question: For RRIRIRPPRLPRPRPRPMGEPRP, which “shrunken log2 fold change” value is on record?
Answer: The value was -0.0442.

Question: RRIRIRPPRLPRPRPRPMHYPRP was tested. Which “shrunken log2 fold change” value did it give?
Answer: Its value is -0.434.

Question: With RRIRIRPPRLPRPRPRPMIQPRP as the sequence, how does the “shrunken log2 fold change” value read?
Answer: Its value is 0.102.

Question: RRIRIRPPRLPRPRPRPMISPRP was tested. Which “shrunken log2 fold change” value did it give?
Answer: The value was -0.00209.

Question: For RRIRIRPPRLPRPRPRPMKFPRP, which “shrunken log2 fold change” value is on record?
Answer: Its value is -0.387.

Question: With RRIRIRPPRLPRPRPRPMKQPRP as the sequence, how does the “shrunken log2 fold change” value read?
Answer: The value was -0.0367.

Question: For RRIRIRPPRLPRPRPRPMKSPRP, which “shrunken log2 fold change” value is on record?
Answer: The value was -0.161.

Question: Which “shrunken log2 fold change” value does the source give for RRIRIRPPRLPRPRPRPMMEPRP here?
Answer: The value was -0.599.

Question: With RRIRIRPPRLPRPRPRPMMHPRP as the sequence, how does the “shrunken log2 fold change” value read?
Answer: Its value is -0.59.

Question: For RRIRIRPPRLPRPRPRPMNAPRP, which “shrunken log2 fold change” value is on record?
Answer: Its value is -0.0262.

Question: How did the “shrunken log2 fold change” value turn out when RRIRIRPPRLPRPRPRPMPGPRP was run?
Answer: The value was -0.172.

Question: For RRIRIRPPRLPRPRPRPMPNPRP, which “shrunken log2 fold change” value is on record?
Answer: Its value is -0.0781.

Question: RRIRIRPPRLPRPRPRPMPTPRP was tested. Which “shrunken log2 fold change” value did it give?
Answer: Its value is 0.316.

Question: RRIRIRPPRLPRPRPRPMREPRP was tested. Which “shrunken log2 fold change” value did it give?
Answer: The value was 0.0761.

Question: How did the “shrunken log2 fold change” value turn out when RRIRIRPPRLPRPRPRPMTEPRP was run?
Answer: The value was 0.0149.

Question: RRIRIRPPRLPRPRPRPMTHPRP was tested. Which “shrunken log2 fold change” value did it give?
Answer: The value was -0.996.

Question: With RRIRIRPPRLPRPRPRPMTVPRP as the sequence, how does the “shrunken log2 fold change” value read?
Answer: Its value is 0.0104.

Question: Which “shrunken log2 fold change” value does the source give for RRIRIRPPRLPRPRPRPMVDPRP here?
Answer: The value was -0.0165.

Question: Which “shrunken log2 fold change” value does the source give for RRIRIRPPRLPRPRPRPMVKPRP here?
Answer: The value was -0.0157.

Question: With RRIRIRPPRLPRPRPRPMVMPRP as the sequence, how does the “shrunken log2 fold change” value read?
Answer: The value was -0.138.

Question: Which “shrunken log2 fold change” value does the source give for RRIRIRPPRLPRPRPRPMYMPRP here?
Answer: The value was 0.00884.

Question: With RRIRIRPPRLPRPRPRPMYPPRP as the sequence, how does the “shrunken log2 fold change” value read?
Answer: The value was -0.0642.

Question: Which “shrunken log2 fold change” value does the source give for RRIRIRPPRLPRPRPRPNCLPRP here?
Answer: The value was -0.602.

Question: How did the “shrunken log2 fold change” value turn out when RRIRIRPPRLPRPRPRPNCNPRP was run?
Answer: Its value is -0.845.

Question: Which “shrunken log2 fold change” value does the source give for RRIRIRPPRLPRPRPRPNCRPRP here?
Answer: Its value is -0.0156.

Question: RRIRIRPPRLPRPRPRPNDSPRP was tested. Which “shrunken log2 fold change” value did it give?
Answer: The value was -0.137.

Question: RRIRIRPPRLPRPRPRPNEEPRP was tested. Which “shrunken log2 fold change” value did it give?
Answer: Its value is -0.179.

Question: Which “shrunken log2 fold change” value does the source give for RRIRIRPPRLPRPRPRPNEMPRP here?
Answer: The value was -0.0277.

Question: Which “shrunken log2 fold change” value does the source give for RRIRIRPPRLPRPRPRPNFCPRP here?
Answer: Its value is -0.162.

Question: Which “shrunken log2 fold change” value does the source give for RRIRIRPPRLPRPRPRPNFSPRP here?
Answer: The value was -0.26.

Question: How did the “shrunken log2 fold change” value turn out when RRIRIRPPRLPRPRPRPNGAPRP was run?
Answer: Its value is 0.0157.

Question: With RRIRIRPPRLPRPRPRPNGHPRP as the sequence, how does the “shrunken log2 fold change” value read?
Answer: Its value is -0.469.

Question: Which “shrunken log2 fold change” value does the source give for RRIRIRPPRLPRPRPRPNGIPRP here?
Answer: Its value is -0.337.

Question: How did the “shrunken log2 fold change” value turn out when RRIRIRPPRLPRPRPRPNGPPRP was run?
Answer: Its value is 0.00676.

Question: RRIRIRPPRLPRPRPRPNGSPRP was tested. Which “shrunken log2 fold change” value did it give?
Answer: The value was 0.0061.

Question: RRIRIRPPRLPRPRPRPNHAPRP was tested. Which “shrunken log2 fold change” value did it give?
Answer: The value was -0.0782.

Question: How did the “shrunken log2 fold change” value turn out when RRIRIRPPRLPRPRPRPNHYPRP was run?
Answer: Its value is -0.492.

Question: RRIRIRPPRLPRPRPRPNIRPRP was tested. Which “shrunken log2 fold change” value did it give?
Answer: Its value is -1.14.

Question: RRIRIRPPRLPRPRPRPNKDPRP was tested. Which “shrunken log2 fold change” value did it give?
Answer: The value was -0.818.

Question: With RRIRIRPPRLPRPRPRPNKIPRP as the sequence, how does the “shrunken log2 fold change” value read?
Answer: Its value is -0.634.

Question: With RRIRIRPPRLPRPRPRPNKVPRP as the sequence, how does the “shrunken log2 fold change” value read?
Answer: Its value is -0.393.

Question: Which “shrunken log2 fold change” value does the source give for RRIRIRPPRLPRPRPRPNLHPRP here?
Answer: The value was -0.623.

Question: For RRIRIRPPRLPRPRPRPNLIPRP, which “shrunken log2 fold change” value is on record?
Answer: Its value is -0.654.

Question: Which “shrunken log2 fold change” value does the source give for RRIRIRPPRLPRPRPRPNLWPRP here?
Answer: The value was -0.132.

Question: How did the “shrunken log2 fold change” value turn out when RRIRIRPPRLPRPRPRPNNTPRP was run?
Answer: Its value is -1.09.

Question: How did the “shrunken log2 fold change” value turn out when RRIRIRPPRLPRPRPRPNPPPRP was run?
Answer: The value was 0.125.

Question: For RRIRIRPPRLPRPRPRPNQHPRP, which “shrunken log2 fold change” value is on record?
Answer: The value was -0.337.

Question: Which “shrunken log2 fold change” value does the source give for RRIRIRPPRLPRPRPRPNRGPRP here?
Answer: The value was -0.203.

Question: With RRIRIRPPRLPRPRPRPNRYPRP as the sequence, how does the “shrunken log2 fold change” value read?
Answer: The value was -0.295.

Question: With RRIRIRPPRLPRPRPRPNSEPRP as the sequence, how does the “shrunken log2 fold change” value read?
Answer: The value was -0.686.

Question: RRIRIRPPRLPRPRPRPNSFPRP was tested. Which “shrunken log2 fold change” value did it give?
Answer: Its value is -0.391.

Question: How did the “shrunken log2 fold change” value turn out when RRIRIRPPRLPRPRPRPNSGPRP was run?
Answer: The value was -0.177.

Question: With RRIRIRPPRLPRPRPRPNVMPRP as the sequence, how does the “shrunken log2 fold change” value read?
Answer: Its value is -0.328.

Question: For RRIRIRPPRLPRPRPRPNVYPRP, which “shrunken log2 fold change” value is on record?
Answer: The value was -0.228.

Question: For RRIRIRPPRLPRPRPRPNWPPRP, which “shrunken log2 fold change” value is on record?
Answer: Its value is -0.146.

Question: Which “shrunken log2 fold change” value does the source give for RRIRIRPPRLPRPRPRPNYLPRP here?
Answer: The value was -0.171.

Question: How did the “shrunken log2 fold change” value turn out when RRIRIRPPRLPRPRPRPNYMPRP was run?
Answer: The value was -0.177.

Question: Which “shrunken log2 fold change” value does the source give for RRIRIRPPRLPRPRPRPPAIPRP here?
Answer: Its value is 0.00229.

Question: Which “shrunken log2 fold change” value does the source give for RRIRIRPPRLPRPRPRPPDQPRP here?
Answer: Its value is -0.0864.

Question: Which “shrunken log2 fold change” value does the source give for RRIRIRPPRLPRPRPRPPEAPRP here?
Answer: The value was 0.276.

Question: How did the “shrunken log2 fold change” value turn out when RRIRIRPPRLPRPRPRPPEMPRP was run?
Answer: Its value is -0.291.

Question: For RRIRIRPPRLPRPRPRPPFCPRP, which “shrunken log2 fold change” value is on record?
Answer: Its value is -0.256.

Question: How did the “shrunken log2 fold change” value turn out when RRIRIRPPRLPRPRPRPPFVPRP was run?
Answer: The value was 0.104.

Question: For RRIRIRPPRLPRPRPRPPGCPRP, which “shrunken log2 fold change” value is on record?
Answer: Its value is 0.354.
